Results reported in patent US20130288373A1 (published 2013).

How the values were obtained:
[1] = molecular target: T1, Flt3D1-D4, recombinant human Flt3 ectodomain variant (residues 27-434) with C-terminal hexahistidine tag (human, UniProt P36888 27-434, N-linked glycosylation (glycosylated protein from HEK293 cells)); assay: ITC at 37 C, Flt3 ectodomain titrated with FL; Flt3D1-D4 ectodomain
T1 construct: Secreted from HEK293T or HEK293S GnTI-/- cells and glycosylated; also called Flt3D14(27-434); Flt3D1-4
T1 sequence: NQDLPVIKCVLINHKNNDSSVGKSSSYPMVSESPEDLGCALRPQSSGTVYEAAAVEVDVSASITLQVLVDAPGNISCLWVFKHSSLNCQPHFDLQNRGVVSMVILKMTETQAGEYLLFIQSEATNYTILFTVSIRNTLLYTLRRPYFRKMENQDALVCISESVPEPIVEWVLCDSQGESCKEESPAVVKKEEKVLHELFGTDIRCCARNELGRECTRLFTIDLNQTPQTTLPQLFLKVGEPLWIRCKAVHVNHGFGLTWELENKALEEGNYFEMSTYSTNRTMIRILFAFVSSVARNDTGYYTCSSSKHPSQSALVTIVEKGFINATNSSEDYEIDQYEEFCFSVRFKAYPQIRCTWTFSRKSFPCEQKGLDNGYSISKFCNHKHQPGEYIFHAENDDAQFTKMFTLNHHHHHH
Procedure: (§1) Experiments were carried out using a VP-ITC MicroCalorimeter (MicroCal, MA) at 37° C., and data were analyzed using the Origin ITC analysis software package supplied by MicroCal. Purified recombinant Flt3 ectodomain constructs and FL were dialyzed overnight against 10 mM Tris-HCl, pH 7.4, at 4° C. Protein concentrations were measured spectrophotometrically at 280 nm using calculated theoretical extinction coefficients and all solutions were extensively degassed prior to use. The sample was stirred at a speed of 400 rpm throughout. The thermal titration data were fit to the “one binding site model”, and apparent molar reaction enthalpy (ΔH°), apparent entropy (ΔS°), association constant (Ka) and stoichiometry of binding (N) were determined. Several titrations were performed to evaluate reproducibility.
(§2) To quantify the thermodynamics, stoichiometry and affinity of extracellular complexes and to dissect the contribution of individual ectodomain modules to complex formation, isothermal titration calorimetry (ITC) was employed. This led to a number of consensus observations (FIG. 1D-F). […] Upon adjusting the Flt3 concentration to the approximate active receptor fraction (˜50%) estimated via the chromatographic elution profile of complex formation, a stoichiometry and thermodynamic signature consistent with that of the other two complexes is detected (FIG. 1F).

[2] = molecular target: T2, Flt3D1-D5, recombinant human Flt3 ectodomain (residues 27-541) with C-terminal hexahistidine tag (human, UniProt P36888 27-541, N-linked glycosylation at 43, 100, 151, 306, 323, 351, 354, 473, 502 (at least partially occupied, by mass spectrometry)); assay: ITC at 37 C, Flt3 ectodomain titrated with FL; Flt3D1-D5 ectodomain
T2 construct: Secreted from HEK293T or HEK293S GnTI-/- cells and glycosylated; The secretion signal is not part of the mature protein; also called Flt3D15(27-541); Flt3D1-5
T2 sequence: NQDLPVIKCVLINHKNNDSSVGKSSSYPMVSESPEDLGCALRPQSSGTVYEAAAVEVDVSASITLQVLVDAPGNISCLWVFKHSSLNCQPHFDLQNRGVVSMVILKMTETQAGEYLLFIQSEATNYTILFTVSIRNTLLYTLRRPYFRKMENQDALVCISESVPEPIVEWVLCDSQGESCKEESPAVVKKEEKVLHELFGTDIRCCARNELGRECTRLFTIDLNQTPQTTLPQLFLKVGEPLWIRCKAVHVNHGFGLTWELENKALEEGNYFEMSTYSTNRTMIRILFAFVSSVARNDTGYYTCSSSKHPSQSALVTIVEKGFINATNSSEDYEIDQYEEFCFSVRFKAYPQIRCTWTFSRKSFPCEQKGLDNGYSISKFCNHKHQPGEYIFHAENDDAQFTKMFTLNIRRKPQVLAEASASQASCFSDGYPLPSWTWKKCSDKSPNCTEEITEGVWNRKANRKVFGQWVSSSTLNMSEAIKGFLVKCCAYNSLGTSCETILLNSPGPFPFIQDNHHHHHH
Procedure: as §1, §2

[3] = molecular target: T2, Flt3D1-D5, recombinant human Flt3 …; assay: isothermal titration calorimetry at 37 °C, Flt3 ectodomain titrated with FL, one binding site model
Text: (§3) (A-B) Isolation of Flt3D1-D5:FL and Flt3D1-D4:FL by size-exclusion chromatography (SEC). Also shown are Coomassie-stained SDS-PAGE strips corresponding to the peak fraction of the isolated complexes. The elution profiles of the complexes are characterized by large shifts to a single, faster migrating peak corresponding to the respective complex. (C) Size-exclusion chromatography on the Flt3D1-D3:FL mixture at the end of an ITC experiment, showing that a large amount of Flt3D1-D3 remains in the unbound form. Identical elution profiles were obtained in standard SEC experiments as well, in the presence of a large molar excess of FL. (D-F) Binding isotherms and thermodynamic parameters of FL binding to Flt3 ectodomains obtained by Isothermal Titration calorimetry (ITC). All experiments were performed by titrating recombinant Flt3 extracellular domains with FL.
as §1

[4] = molecular target: T1, Flt3D1-D4, recombinant human Flt3 …; assay: as above
Text: as §3, §1

[5] = molecular target: T3, Flt3D1-D3, recombinant human Flt3 ectodomain variant (residues 27-346) with C-terminal hexahistidine tag (human, UniProt P36888 27-346, N-linked glycosylation (glycosylated protein from HEK293 cells)); assay: as above
T3 construct: also called Flt3D13(27-346)
T3 sequence: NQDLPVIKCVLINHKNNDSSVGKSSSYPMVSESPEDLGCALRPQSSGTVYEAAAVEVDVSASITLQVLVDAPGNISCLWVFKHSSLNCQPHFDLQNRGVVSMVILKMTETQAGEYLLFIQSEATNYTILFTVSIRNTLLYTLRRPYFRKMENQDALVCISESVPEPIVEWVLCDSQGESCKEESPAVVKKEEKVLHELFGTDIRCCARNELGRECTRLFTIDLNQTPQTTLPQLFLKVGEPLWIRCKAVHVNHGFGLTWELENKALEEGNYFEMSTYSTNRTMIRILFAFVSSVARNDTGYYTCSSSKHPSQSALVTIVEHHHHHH
Text: as §3, §1

[6] = molecular target: T3, Flt3D1-D3, recombinant human Flt3 …; assay: ITC at 37 C, Flt3 ectodomain titrated with FL; Flt3D1-D3 ectodomain; about 50% active receptor fraction
Procedure: as §1, §2

[7] = molecular target: T4, Flt3D1-D2, recombinant human Flt3 ectodomain variant (residues 27-244) with C-terminal hexahistidine tag (human, UniProt P36888 27-244, N-linked glycosylation (glycosylated protein from HEK293 cells)); assay: size-exclusion chromatography with FL
T4 construct: also called Flt3D12 (27-244)
T4 sequence: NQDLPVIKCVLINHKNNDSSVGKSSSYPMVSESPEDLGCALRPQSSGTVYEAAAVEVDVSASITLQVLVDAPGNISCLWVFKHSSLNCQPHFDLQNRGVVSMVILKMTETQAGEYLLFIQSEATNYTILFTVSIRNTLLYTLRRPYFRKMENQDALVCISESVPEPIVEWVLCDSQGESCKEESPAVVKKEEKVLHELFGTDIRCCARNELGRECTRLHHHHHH

[8] = molecular target: T5, Flt3D1, recombinant human Flt3 ectodomain variant (residues 27-161) with C-terminal hexahistidine tag (human, UniProt P36888 27-161, N-linked glycosylation (glycosylated protein from HEK293 cells)); assay: size-exclusion chromatography with FL
T5 construct: also called Flt3D1(27-161)
T5 sequence: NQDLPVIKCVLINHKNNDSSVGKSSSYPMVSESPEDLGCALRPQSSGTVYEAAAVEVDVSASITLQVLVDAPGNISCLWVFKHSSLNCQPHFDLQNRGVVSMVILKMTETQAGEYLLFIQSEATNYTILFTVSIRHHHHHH

[9] = molecular target: T2, Flt3D1-D5, recombinant human Flt3 …; assay: ITC at 37 C, one binding site model
Procedure: as §1, §2

[10] = molecular target: T1, Flt3D1-D4, recombinant human Flt3 …; assay: ITC at 37 C, one binding site model
Procedure: as §1, §2

B1: recombinant human FL (fms-like tyrosine kinase receptor-3 ligand) produced in E. coli (ligand)
chain: TQDCSFQHSPISSDFAVKIRELSDYLLQDYPVTVASNLQDEELCGGLWRLVLAQRWMERLKTVAGSKMQGLLERVNTEIHFVTKCAFQPPPSCLRFVQTNISRLLQETSEQLVALKPWITRQNFSRCLELQCQP
notes: Dimeric cytokine; also called Flt3 ligand; cognate ligand
[1]
  Kd: 40 nM
[2]
  Kd: 8.7 nM
[3]
  N: 0.42
  ΔH: -51.7 kcal/mol
  ΔS: -130 cal mol-1 K-1
[4]
  N: 0.45
  ΔH: -55.9 kcal/mol
  ΔS: -146 cal mol-1 K-1
[5]
  Kd: 74.6 nM
  N: 0.121
  ΔH: -24.9 kcal/mol
  ΔS: -47.5 cal mol-1 K-1
[6]
  Kd: 70 nM
[7]
  binding result: no binding
[8]
  binding result: no binding
[9]
  stoichiometry of binding (N): 0.5
[10]
  stoichiometry of binding (N): 0.5
